In paper PMC2880176:

Key:
[1] = test system: MBP-#γA-opt (5-finger artificial zinc finger protein) (artificial); test: EMSA
[2] = test system: MBP-#γA (5-finger artificial zinc finger protein) (artificial); test: EMSA
[3] = test system: gg1 (6-finger artificial zinc finger protein) (artificial); conditions: cited from earlier work

“GATGCCGTTTGAGGT (double strand) [γ-globin promoter #γA target site]” showed a Kd [1] of 7.1 nM and a Kd [2] of 3.2 nM.

In the case of “GTCAAGGCAAGGCTGGCC (double strand) [gg1 target site in γ-globin promoter]”, the Kd [3] is given as 0.7 nM.
